Data reported in paper PMC4587089, “Molecular cloning of AtRS4, a seed specific multifunctional RFO synthase/galactosylhydrolase in Arabidopsis thaliana” (Frontiers in Plant Science, 2015).

How the values were obtained:
Assay type in all cases: biochemical, Arabidopsis thaliana
[1] = substrate: OC[C@H]1O[C@H](OC[C@H]2O[C@H](OC[C@H]3O[C@H](O[C@]4(CO)O[C@H](CO)[C@@H](O)[C@@H]4O)[C@H](O)[C@@H](O)[C@@H]3O)[C@H](O)[C@@H](O)[C@H]2O)[C@H](O)[C@@H](O)[C@H]1O; assay: HPAEC-PAD, raffinose formation; conditions: galactosylhydrolase reaction, stachyose alone, range 50 to 1,200 μM, 25 mM K-phosphate pH 7, 25°C, 60 min
[2] = substrate: OC[C@H]1O[C@H](OC[C@H]2O[C@H](O[C@]3(CO)O[C@H](CO)[C@@H](O)[C@@H]3O)[C@H](O)[C@@H](O)[C@@H]2O)[C@H](O)[C@@H](O)[C@H]1O; assay: HPAEC-PAD, stachyose formation; conditions: stachyose synthase reaction, galactosyl acceptor, co-substrate galactinol (standard assay 100 μM), 25 mM K-phosphate pH 7, 25°C, 60 min
[3] = substrate: OC[C@H]1O[C@H](O[C@@H]2[C@@H](O)[C@H](O)[C@@H](O)[C@H](O)[C@@H]2O)[C@H](O)[C@@H](O)[C@H]1O; assay: HPAEC-PAD, stachyose formation; conditions: stachyose synthase reaction, galactosyl donor, co-substrate raffinose (standard assay 400 μM), range 50 to 1,200 μM, 25 mM K-phosphate pH 7, 25°C, 60 min

B1: AtRS4 (AtSTS, AtStaS, At4g01970) (Arabidopsis thaliana) (protein)
chain: MAPLHESLSSINDVIESKPLFVPITKPILQPNSFNLSEGSLCAKDSTPILFDVPQNVTFTPFSSHSISTDAPLPILLRVQANAHKGGFLGFTKESPSDRLTNSLGRFEDREFLSLFRFKMWWSTAWIGKSGSDLQAETQWVMLKIPEIDSYVAIIPTIEGAFRASLTPGEKGNVLICAESGSTKVKESSFKSIAYIHICDNPYNLMKEAFSALRVHMNTFKLLEEKKLPKIVDKFGWCTWDACYLTVDPATIWTGVKEFEDGGVCPKFVIIDDGWQSINFDGDELDKDAENLVLGGEQMTARLTSFKECKKFRNYKGGSFITSDASHFNPLKPKMLIYKATERIQAIILRRKLVKESGEQDLTELDEKIKILSEELNAMFDEVEKEESLGSDDVSGSGMAAFTKDLRLRFKSLDDIYVWHALCGAWNGVRPETMMDLKAKVAPFELSPSLGATMADLAVDKVVEAGIGLVHPSKAHEFYDSMHSYLASVGVTGAKIDVFQTLESLAEEHGGRVELAKAYYDGLTESMIKNFNGTDVIASMQQCNEFFFLATKQISIGRVGDDFWWQDPYGDPQGVYWLQGVHMIHCSYNSIWMGQMIQPDWDMFQSDHVCAEYHAASRAICGGPVYLSDHLGKASHNFDLIKKLAFFDGTIPRCVHYALPTRDSLFKNPLFDKESILKIFNFNKFGGVIGTFNCQGAGWSPEEHRFKGYKECYTTVSGTVHVSDIEWDQNPEAAGSQVTYTGDYLVYKQQSEEILFMNSKSEAMKITLEPSAFDLLSFVPVTELVSSGVRFAPLGLINMFNCVGTVQDMKVTGDNSIRVDVKGEGRFMAYSSSAPVKCYLNDKEAEFKWEEETGKLSFFVPWVEESGGISHLSFTF
In the case of B1, the Km [1] is reported as 1,059 ± 269.3 μM, the Km [2] is reported as 259.2 ± 21.15 µM and the Km [3] is reported as 1,170 ± 246.8 μM.
